This note sets out measurements from patent publication US20240043505A1.

The target of this assay is SARS-CoV-2 RBD E484K mutant (SARS-CoV-2), P0DTC2. The note with it: remark: other sources report otherwise.

B1: Nb21 (VHH)
VHH: QVQLVESGGGLVQAGGSLRLSCAVSGLGAHRVGWFRRAPGKEREFVAAIGANGGNTNYLDSVKGRFTISRDNAKNTIYLQMNSLKPQDTAVYYCAARDIETAEYTYWGQGTQVTVSS
With B1, the binding affinity fold change relative to RBD WT was below -1000 fold.
